The text below walks through data of the supplement of paper PMC5998384.

Data set [1] concerns HeLa Kyoto. The experiment in a line: melting temperature (median over replicates), in situ; higher = more thermally stable.
Data set [2] concerns HeLa Kyoto. The experiment in a line: solubility in G1/S (NP-40 vs SDS abundance) (log2 ratio); higher = more soluble. Particulars: cell cycle stage: G1/S.
In data set [3] the test system is HeLa Kyoto. As to the kind of experiment: solubility change mitosis vs G1/S (difference of NP-40 vs SDS log2 ratios) (log2 ratio difference); higher = more soluble in mitosis.
The subject of data set [4] is HeLa Kyoto. As to the kind of experiment: thermal stability score vs G1/S (z-score of summed log2 fold changes over temperatures); higher = more thermally stable than in G1/S.
Setting [5] is: cell cycle stage: early G1 (4.5 h after nocodazole release).
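Throughout, for melting temperature (median over replicates), in situ: HeLa Kyoto cells synchronized by double thymidine or nocodazole block, proteins quantified by TMT10plex mass spectrometry, three independent biological replicates.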
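Throughout, for solubility change mitosis vs G1/S (difference of NP-40 vs SDS log2 ratios): synchronized HeLa Kyoto cells (double thymidine block for G1/S, nocodazole release for mitosis), protein amounts in NP-40 versus SDS lysates quantified by mass spectrometry, three biological replicates.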
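Throughout, for solubility in G1/S (NP-40 vs SDS abundance): HeLa Kyoto cells arrested at G1/S by double thymidine block, proteins quantified by TMT10plex mass spectrometry in mild NP-40 versus SDS extracts, three biological replicates.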
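Throughout, for thermal stability score vs G1/S (z-score of summed log2 fold changes over temperatures): synchronized HeLa Kyoto cells, proteins quantified by TMT10plex mass spectrometry, three biological replicates, mitosis taken 0.5 h after nocodazole release, G1/S directly after double thymidine block.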

Consider “MALRPGAGSGGGGAAGAGAGSAGGGGFMFPVAGGIRPPQAGLMPMQQQGFPMVSVMQPNMQGIMGMNYSSQMSQGPIAMQAGIPMGPMPAAGMPYLGQAPFLGMRPPGPQYTPDMQKQFAEEQQKRFEQQQKLLEEERKRRQFEEQKQKLRLLSSVKPKTGEKSRDDALEAIKGNLDGFSRDAKMHPTPASHPKKPGPSLEEKFLVSCDISTSGQEQIKLNTSEVGHKALGPGSSKKYPSLMASNGVAVDGCVSGTTTAEAENTSDQNLSIEESGVGVFPSQDPAQPRMPPWIYNESLVPDAYKKILETTMTPTGIDTAKLYPILMSSGLPRETLGQIWALANRTTPGKLTKEELYTVLAMIAVTQRGVPAMSPDALNQFPAAPIPTLSGFSMTLPTPVSQPTVIPSGPAGSMPLSLGQPVMGINLVGPVGGAAAQASSGFIPTYPANQVVKPEEDDFQDFQDASKSGSLDDSFSDFQELPASSKTSNSQHGNSAPSLLMPLPGTKALPSMDKYAVFKGIAADKSSENTVPPGDPGDKYSAFRELEQTAENKPLGESFAEFRSAGTDDGFTDFKTADSVSPLEPPTKDKTFPPSFPSGTIQQKQQTQVKNPLNLADLDMFSSVNCSSEKPLSFSAVFSTSKSVSTPQSTGSAATMTALAATKTSSLADDFGEFSLFGEYSGLAPVGEQDDFADFMAFSNSSISSEQKPDDKYDALKEEASPVPLTSNVGSTVKGGQNSTAASTKYDVFRQLSLEGSGLGVEDLKDNTPSGKSDDDFADFHSSKFSSINSDKSLGEKAVAFRHTKEDSASVKSLDLPSIGGSSVGKEDSEDALSVQFDMKLADVGGDLKHVMSDSSLDLPTVSGQHPPAADIEDLKYAAFGSYSSNFAVSTLTSYDWSDRDDATQGRKLSPFVLSAGSGSPSATSILQKKETSFGSSENITMTSLSKVTTFVSEDALPETTFPALASFKDTIPQTSEQKEYENRDYKDFTKQDLPTAERSQEATCPSPASSGASQETPNECSDDFGEFQSEKPKISKFDFLVATSQSKMKSSEEMIKSELATFDLSVQGSHKRSLSLGDKEISRSSPSPALEQPFRDRSNTLNEKPALPVIRDKYKDLTGEVEENERYAYEWQRCLGSALNVIKKANDTLNGISSSSVCTEVIQSAQGMEYLLGVVEVYRVTKRVELGIKATAVCSEKLQQLLKDIDKVWNNLIGFMSLATLTPDENSLDFSSCMLRPGIKNAQELACGVCLLNVDSRSRKEEKPAEEHPKKAFNSETDSFKLAYGGHQYHASCANFWINCVEPKPPGLVLPDLL [SYNRG]”, for which the melting temperature was found to be 49.9 °C with HeLa Kyoto [1] (cell cycle stage: G1/S) and 49.7 °C in the data set on HeLa Kyoto [1] (cell cycle stage: mitosis). Also, the “solubility in G1/S (log2)” value with HeLa Kyoto [2] is 0.0486. Moreover, the “solubility change mitosis (log2)” value in the data set on HeLa Kyoto [3] is -0.164. Besides, the thermal stability score was found to be 0.188 in the data set on HeLa Kyoto [4] (setting [5]) and 1.39 in the data set on HeLa Kyoto [4] (cell cycle stage: mitosis).
As to “MALSDEPAAGGPEEEAEDETLAFGAALEAFGESAETRALLGRLREVHGGGAEREVALERFRVIMDKYQEQPHLLDPHLEWMMNLLLDIVQDQTSPASLVHLAFKFLYIITKVRGYKTFLRLFPHEVADVEPVLDLVTIQNPKDHEAWETRYMLLLWLSVTCLIPFDFSRLDGNLLTQPGQARMSIMDRILQIAESYLIVSDKARDAAAVLVSRFITRPDVKQSKMAEFLDWSLCNLARSSFQTMQGVITMDGTLQALAQIFKHGKREDCLPYAATVLRCLDGCRLPESNQTLLRKLGVKLVQRLGLTFLKPKVAAWRYQRGCRSLAANLQLLTQGQSEQKPLILTEDDDEDDDVPEGVERVIEQLLVGLKDKDTVVRWSAAKGIGRMAGRLPRALADDVVGSVLDCFSFQETDKAWHGGCLALAELGRRGLLLPSRLVDVVAVILKALTYDEKRGACSVGTNVRDAACYVCWAFARAYEPQELKPFVTAISSALVIAAVFDRDINCRRAASAAFQENVGRQGTFPHGIDILTTADYFAVGNRSNCFLVISVFIAGFPEYTQPMIDHLVTMKISHWDGVIRELAARALHNLAQQAPEFSATQVFPRLLSMTLSPDLHMRHGSILACAEVAYALYKLAAQENRPVTDHLDEQAVQGLKQIHQQLYDRQLYRGLGGQLMRQAVCVLIEKLSLSKMPFRGDTVIDGWQWLINDTLRHLHLISSHSRQQMKDAAVSALAALCSEYYMKEPGEADPAIQEELITQYLAELRNPEEMTRCGFSLALGALPGFLLKGRLQQVLTGLRAVTHTSPEDVSFAESRRDGLKAIARICQTVGVKAGAPDEAVCGENVSQIYCALLGCMDDYTTDSRGDVGTWVRKAAMTSLMDLTLLLARSQPELIEAHTCERIMCCVAQQASEKIDRFRAHAASVFLTLLHFDSPPIPHVPHRGELEKLFPRSDVASVNWSAPSQAFPRITQLLGLPTYRYHVLLGLVVSLGGLTESTIRHSTQSLFEYMKGIQSDPQALGSFSGTLLQIFEDNLLNERVSVPLLKTLDHVLTHGCFDIFTTEEDHPFAVKLLALCKKEIKNSKDIQKLLSGIAVFCEMVQFPGDVRRQALLQLCLLLCHRFPLIRKTTASQVYETLLTYSDVVGADVLDEVVTVLSDTAWDAELAVVREQRNRLCDLLGVPRPQLVPQPGAC [TBCD]”, the melting temperature in the data set with HeLa Kyoto [1] (cell cycle stage: G1/S) amounted to 50 °C; with HeLa Kyoto [1] (cell cycle stage: mitosis), 50.2 °C. Also, in the data set on HeLa Kyoto [2], the “solubility in G1/S (log2)” value was -0.194. For the same sequence, the “solubility change mitosis (log2)” value in the data set on HeLa Kyoto [3] is -0.154. Moreover, the thermal stability score was -0.177 in the data set with HeLa Kyoto [4] (setting [5]) and 0.431 with HeLa Kyoto [4] (cell cycle stage: mitosis).
For the sequence “MALSKSMHARNRYKDKPPDFAYLASKYPDFKQHVQINLNGRVSLNFKDPEAVRALTCTLLREDFGLSIDIPLERLIPTVPLRLNYIHWVEDLIGHQDSDKSTLRRGIDIGTGASCIYPLLGATLNGWYFLATEVDDMCFNYAKKNVEQNNLSDLIKVVKVPQKTLLMDALKEESEIIYDFCMCNPPFFANQLEAKGVNSRNPRRPPPSSVNTGGITEIMAEGGELEFVKRIIHDSLQLKKRLRWYSCMLGKKCSLAPLKEELRIQGVPKVTYTEFCQGRTMRWALAWSFYDDVTVPSPPSKRRKLEKPRKPITFVVLASVMKELSLKASPLRSETAEGIVVVTTWIEKILTDLKVQHKRVPCGKEEVSLFLTAIENSWIHLRRKKRERVRQLREVPRAPEDVIQALEEKKPTPKESGNSQELARGPQERTPCGPALREGEAAAVEGPCPSQESLSQEENPEPTEDERSEEKGGVEVLESCQGSSNGAQDQEASEQFGSPVAERGKRLPGVAGQYLFKCLINVKKEVDDALVEMHWVEGQNRDLMNQLCTYIRNQIFRLVAVN [METTL16]”, the melting temperature in the data set with HeLa Kyoto [1] (cell cycle stage: G1/S) was found to be 50.2 °C; with HeLa Kyoto [1] (cell cycle stage: mitosis) it was 50.8 °C. The “solubility in G1/S (log2)” value with HeLa Kyoto [2] is 0.161. In the data set on HeLa Kyoto [3], the “solubility change mitosis (log2)” value is -0.2. Also, the values for the thermal stability score in the data set with HeLa Kyoto [4] (setting [5]) and in the data set with HeLa Kyoto [4] (cell cycle stage: mitosis) were 1.61 and 2.17, respectively.
